PMC3534379

Assays:
[1] = molecular target: human CD4 C-terminally fused to the C-terminal fragment of click beetle green (UniProt P01730); assay: click beetle luciferase complementation assay in living 293T cells; settings: read off a plot
[2] = molecular target: ß-TrCP N-terminally fused to the C-terminal fragment of click beetle green (UniProt Q9Y297); assay: as above; settings: 36 h after transfection, equal amounts of plasmids, D-Luciferin added, read off a plot
[3] = molecular target: human CD4 C-terminally fused to the C-terminal fragment of click beetle green (UniProt P01730)
[4] = + ß-TrCPΔF cotransfected (grey bars), parent: est. 20
[5] = without ß-TrCPΔF (coloured bars), parent: est. 8
[6] = + ß-TrCPΔF cotransfected (grey bars), parent: est. 14
[7] = without ß-TrCPΔF (coloured bars), parent: est. 13

Sequence of UniProt Q9Y297 (Q9Y297 whole entry, the tested form may be a part): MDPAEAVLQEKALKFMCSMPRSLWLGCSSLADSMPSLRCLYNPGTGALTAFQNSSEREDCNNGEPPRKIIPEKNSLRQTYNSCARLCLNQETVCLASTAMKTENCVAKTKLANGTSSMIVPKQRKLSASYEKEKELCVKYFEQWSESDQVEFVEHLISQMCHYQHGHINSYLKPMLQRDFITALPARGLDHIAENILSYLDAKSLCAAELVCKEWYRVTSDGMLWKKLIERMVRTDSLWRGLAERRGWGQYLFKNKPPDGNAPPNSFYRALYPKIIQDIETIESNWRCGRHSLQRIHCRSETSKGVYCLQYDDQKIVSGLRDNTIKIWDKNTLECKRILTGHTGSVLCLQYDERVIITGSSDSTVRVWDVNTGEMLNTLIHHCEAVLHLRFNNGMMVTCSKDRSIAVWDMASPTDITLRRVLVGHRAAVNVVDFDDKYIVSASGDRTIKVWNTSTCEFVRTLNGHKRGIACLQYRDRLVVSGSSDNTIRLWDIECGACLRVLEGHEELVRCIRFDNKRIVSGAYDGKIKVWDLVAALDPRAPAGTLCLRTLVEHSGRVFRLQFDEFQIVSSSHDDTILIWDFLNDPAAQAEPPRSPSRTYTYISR

Row | Substance | response (RLU/s x 1.000) [1, 4] | response (RLU/s x 1.000) [1, 5] | response (RLU/s x 1.000) ([2]; parent: est. 6.2) | reduction in CD4 cell surface expression (293T cells, flow cytometry) [3] [fold] | response (RLU/s x 1.000) [1, 6] | response (RLU/s x 1.000) [1, 7] | response (RLU/s x 1.000) ([2]; parent: est. 4.7)
1 | HIV-1 group M NL4-3 Vpu C-terminally fused to the N-terminal fragment of click beetle green G53D | 22 | 30 | 2.2 | – | – | – | –
2 | HIV-1 group M NL4-3 Vpu C-terminally fused to the N-terminal fragment of click beetle green S52A; S56A | 24 | 29 | 2.2 | – | – | – | –
3 | HIV-1 group N DJO0131 Vpu C-terminally fused to the N-terminal fragment of click beetle green (natural protein) | – | – | – | 2.8 | – | – | –
4 | HIV-1 group N YBF30 Vpu C-terminally fused to the N-terminal fragment of click beetle green (from UniProt O91085) G51D | – | – | – | – | 12 | 18 | 1.3
5 | HIV-1 group N YBF30 Vpu C-terminally fused to the N-terminal fragment of click beetle green (from UniProt O91085) S52A; S56A | – | – | – | – | 19 | 17 | 0.9
